Drawing on PMC12448032, this text covers uptake by K7M2 cells of BI@PCM NPs (PD1-high membrane) compared to B@CM NPs (PD1-low membrane), flow cytometry, 4 h for one substance.

The target in the test is PD-L1 (UniProt Q9EP73).
Sequence of UniProt Q9EP73 (Q9EP73 19-290): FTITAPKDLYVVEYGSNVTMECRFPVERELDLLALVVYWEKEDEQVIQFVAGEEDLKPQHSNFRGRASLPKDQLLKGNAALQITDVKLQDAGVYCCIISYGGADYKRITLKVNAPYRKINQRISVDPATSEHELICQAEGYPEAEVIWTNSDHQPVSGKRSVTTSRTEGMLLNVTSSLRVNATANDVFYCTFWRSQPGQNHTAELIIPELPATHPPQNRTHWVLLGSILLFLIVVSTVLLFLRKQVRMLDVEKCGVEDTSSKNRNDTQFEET

With “programmed cell death-1 (PD1), mouse, overexpressed in 293 T cells (from UniProt Q02242 25-288) (receptor)”, the uptake by K7M2 cells of BI@PCM NPs (PD1-high membrane) compared to B@CM NPs (PD1-low membrane), flow cytometry, 4 h turned out to be 2.1 fold.
